According to article doi:10.1101/2020.05.05.078014:

Target: T1, Rhed (RNA-binding heme domain of DGCR8), heme-bound (Homo sapiens, UniProt Q8WYQ5 285-478)
T1 sequence: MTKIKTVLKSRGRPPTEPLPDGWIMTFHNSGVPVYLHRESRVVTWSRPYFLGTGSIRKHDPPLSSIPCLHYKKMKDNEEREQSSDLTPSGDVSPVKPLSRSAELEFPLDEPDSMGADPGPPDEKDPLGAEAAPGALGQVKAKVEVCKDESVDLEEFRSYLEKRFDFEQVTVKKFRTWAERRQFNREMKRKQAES
Experiment: EMSA

GGAGACUGAUUGUCAUAUGUCGUUUGUGGGAUCCGUCUCC (structured_RNA) [pri-miR-340 apical stem-loop fragment]
Kd: 3.5 µM
